Measurements from patent US20040096950.

What was measured:
[1] = target: BACE N->Q R56KR57K no His

Protein | activity (fluorimetric assay with the fluorescent peptide R-E(EDANS)-E-V-N-L-*D-A-E-F-K(DABCYL)-R-OH as substrate) (OM 99) | Cleavage position (ESI-TOF-MS), final fragment, observed parent mass 46655 (BACE N->Q R56KR57K) | Cleavage position (ESI-TOF-MS), first intermediate fragment at 30-60 minutes post activation, observed parent mass 45838.30 [1] | Cleavage position (ESI-TOF-MS), fragment formed on digestion beyond 60 minutes, observed parent mass 44228.03 [1] | Cleavage position (ESI-TOF-MS), final fragment, observed parent mass 45783 (BACE WT R56KR57K) | Cleavage position (ESI-TOF-MS), first intermediate fragment (BACE WT R56KR57K)
BACE enzyme (refolded recombinant BACE as used in the fluorimetric activity assay) (protein) LPRETDEEPEEPGRRGSFVEMVDNLRGKSGQGYYVEMTVGSPPQTLNILVDTGSSNFAVGAAPHPFLHRYYQRQLSSTYRDLRKGVYVPYTQGKWEGELGTDLVSIPHGPNVTVRANIAAITESDKFFINGSNWEGILGLAYAEIARPDDSLEPFFDSLVKQTHVPNLFSLQLCGAGFPLNQSEVLASVGGSMIIGGIDHSLYTGSLWYTPIRREWYYEVIIVRVEINGQDLKMDCKEYNYDKSIVDSGTTNLRLPKKVFEAAVKSIKAASSTEKFPDGFWLGEQLVCWQAGTTPWNIFPVISLYLMGEVTNQSFRITILPQQYLRPVEDVATSQDDCYKFAISQSSTGTVMGAVIMEGFYVVFDRARKRIGFAVSACHVHDEFRTAAVEGPFVTLDMEDCGYNIPQTDES | 1 mM OM 99 completely inhibits activity. |  |  |  |  | 
Clostripain (Cp; EC 3.4.22.8, from Worthington or Sigma C7403) (protein) NKNQKVTIMYYCDADNNLEGSLLNDIEEMKTGYKDSPNLNLIALVDRSPRYSSDEKVLGEDFSDTRLYKIEHNKANRLDGKNEFPEISTTSKYEANMGDPEVLKKFIDYCKSNYEADKYVLIMANHGGGAREKSNPRLNRAICWDDSNLDKNGEADCLYMGEISDHLTEKQSVDLLAFDACLMGTAEVAYQYRPGNGGFSADTLVASSPVVWGPGFKYDKIFDRIKAGGGTNNEDDLTLGGKEQNFDPATITNEQLGALFVEEQRDSTHANGRYDQHLSFYDLKKAESVKRAIDNLAVNLSNENKKSEIEKLRGSGIHTDLMHYFDEYSEGEWVEYPYFDVYDLCEKINKSENFSSKTKDLASNAMNKLNEMIVYSFGDPSNNFKEGKNGLSIFLPNGDKKYSTYYTSTKIPHWTMQSWYNSIDTVKYGLNPYGKLSWCKDGQDPEINKVGNWFELLDSWFDKTNDVTGGVNHYQW |  | MASMTGGQQMGRGSMAGVLPAHGTQHGIRLPLRSGLGGAPLGLR↓ | MASMTGGQQMGRGSMAGVLPAHGTQHGIRLPLRSGLGGAPLGLR ↓ | EEPEEPGK ↓ KGSFVEMV . . . | MASMTGGQQMGRGSMAGVLPAHGTQHGIRLPLRSGLGGAPLGLR↓ | MASMTGGQQMGR⇓GSMAGVLPAHGT . . .
